A short description of the series: soluble on expression in E. coli; label from the status in PepcDB or PDB records.
As to “MGSDKIHHHHHHMSDLINIQKKLLPDVLMIMQKRYQILRSIYFSEPVGRRTLAGMLGMSERVLRGEVEFLKAQGLVEIASSGMTVTKEGLVVFRDLESVMNQLSGLHSMEEQLAKKLQIKKCLVVQGDSDDTPWVREEMGRVAVEQLDMALTEKRNIVAVMGGSTMATVAEMMTTDFAKGRELLFVPGRGGIGEDLDNQANTICDKMATKTNTKHRVLYVPEQLGEEAYRSLLKEPAIQEGLRLVQSANAIILGIGDALAMAKRRHTGEDVLEKIIHRKAVGEAFGYYFDEQGEVVHKVPTFGLQFEDLAQIPHIIAVAGGTSKAKAIKSYMKSAPKNTILITDEGAAKSLLKGSNTLLK”, the “soluble on expression in E. coli” value is “not soluble”.
Consider “MGSDKIHHHHHHMMSQEQNDLITRVGPGTPCGKLMRAYWQPAALVDELEGERPIKPVRLLGEDLVLFKDETGRYGLIDRDCPHRGADLAFGRLENGGLRCAFHGWLFDVDGKCIDTPAEPAGSPLCKNIKQRAFPVVAKGGILWAYLGAGEPPAFPEIDCFIAPDTHVFAFKGLMECNWLQALEVGIDPAHASFLHRFFEDEDTSQAYGKQFRGASAGSDLPMTKVLREYDRPIINVEHTEYGLRLIALREIDDERTHVRVTNQLFPHGFVIPMSTEMTITQWHVPVDDTHCYWYAIFTSYAAPVDKVKMRDQRLELYELPNYKSRRNKTNDYGFDPHEQATATYTGMGLDINVHDQWAVESMGAIQDRTREHLGQSDKAIIQYRRLLRQEIEKAASGGKPLLALDEAAARAIQGPATMDGIGPSRGWETYWMEVDVKRRRGAPWAVPVPSEIAAKVPHLTAAE”, for which the “soluble on expression in E. coli” value is “not soluble”.
For “MARLSQEIILDMAEQIIYEKGMEKTTLYDIAGNLNVTHAALYKHYRNKEDLFQKLALRWLEETSREIFAWTKEKDASPDDALHDWLWLLADTKKTLYKTDRKMFLLYTDYIEQKEELVKNHIEHLAQKAEEVSGRVNQGDAIITAFIYFHNPYFASRWEKAGYVELFERVWQVVR”, the “soluble on expression in E. coli” value is “not soluble”.
Take “MLKISNSVTLQEWEIQLTPIRAQGNGGQNVNKVATAIHLRFDIHHSSLPEFYKERLLALSDSRITKDGVVIIKAQQFRTQEKNKEDALNRLQELIKAAALQDKKRIKTKPTRASQRRRLDSKNKQGAKKQQRKKVLYLEHHHHHH”: the “soluble on expression in E. coli” value is “not soluble”.
The entry for “MGSDKIHHHHHHMLFWSTVDLGLTFMATSSTLAFDSSNRIDDVKIVIKGYEFGPAVPKLVVKLNQKISKVSTKDLKVETAGVKRQIKKVYLSDKNSQKSTKKEGDYLTIQMPVTYNVDDSSKNASPFVYNTDVFQNQWVKTYPVSIKGLTVSYKGKSTNNLTSKSDAINKRVSPDSEVFTNRGSFSGNYTNPLTKKNEKVDLQYAAYEPKKLQSGNKNPLIIWLHGQGEGGTDPDITLLGNKVTALIKEDIQNHFKSGNQKGTYVLTVQAPTYWMDEGDGSNGQGAGTSRYTEVLMDAIKKYVAKIT” is “not soluble”.
Then “MEYSQIPSFAFYNNASIFQFFPRNKRLNTHQKSCLDEHARKMAVFMMERQEEYRYYENLANQEQFSDDACFSDTGMDSGFCSGATSTGQSASTSPAPAHLIPNPFFDPEYVAKAQSPVKLVANPFYNPELVKEIKKKSRVSV”, with “not soluble”; and “MGSDKIHHHHHHMLHRTCIQFHKFGNPKDVLQVEYKNIEPLKENEVLVRMLVRPINPSDLIPITGAYAHRIPLPNIPGYEGVGIVEDVGAFVSRDLIGKRVLPLRGEGTWQEYVKTSPDFVVPIPDSINDFTAAQMYINPLTAWVTCTETLNLQRNDVLLVNACGSAIGHLFAQLSQILNFRLIAVTRNNKHTEELLRLGAAYVIDTSTAPLYETVMTLTNGIGADAAIDSIGGPDGNELAFSLRPNGHFLTIGLLSGVQVNWAEIVTKAKVHANIFHLRHWNKEASSYKWQETFRHLIRLVENEQLRFMKVHSTYDLADVKAAVDVVQSAEKTKG”, with “not soluble”; and “MLLYKDVISGDELVSDAYDLKEVDDIVYEADCQMVTVKQGGDVDIGANPSAEDAEENAEEGTETVNNLVYSFRLSPTSFDKKSYMSYIKGYMKAIKARLQESNPERVPVFEKNAIGFVKKILANFKDYDFYIGESMDPDAMVVLMNYREDGITPYMIFFKDGLVSEKF”, with “soluble”.
Then “MGSDKIHHHHHHMSTPQFGRKVSLIIGQDSGDALDLSELRFRFDVRRGDLQTPNSARVRVYNVSPDTARRAQREFSRLVLQAGYPGNFGIIFDGTIKQVRRGRENQTDTYLDITAADGDSAYNFAVVNTTLAAGSTPSDHVAAACTAMNPYGVTQGYLPSLPSNPLPRGKVMFGMAREFMRWTARTCQTVWSIQDGKAIMVPETSYMPGEIPVITAETGMVGLPEQTQNGIAIKMLLNPSVKIGRLIQIDNASVQQYEYSLNVGQQAQNERIEQQAKLQDDGFYYVMLAEHYGDTRGNDFYTDVICLAADVTVLPDSFRDKAAVPPDNVIKRFG”, with “not soluble”.
“MNSRQMYEKIKERLVAHPHWTFRFDAKQDAMRVEDRRTKKGVTISLPGVIAKWHEQKDEAVREVVYYVEQTLKTMEEDAALSGNERNIYPVIRSASFPTETKEGVPLLFDDHTAETRIYYALDLGKTYRLIDERMLEKDKWSRERVKEIARFNVRSLPTPVKEARVADNVFYFVNPNDGYDASRILNESFLADMRARVEGTMAVAVPHQDVLVIADVRNDIGYDVLAQMTMSFFAGGRVPITALSFLYENGKLEPIFILGKKRRT”: the “soluble on expression in E. coli” value was “not soluble”.
Then “MAHHHHHHMEAFAITPLAEDDTTFVKDAQQFLAVIADMQREAEQRRCLLDDLRQKEAAAEMELEKCLAVREAVVARMAHTKAEGLELQSEYKALTTQQRAVEAEVLELRRQKSHWKKVLQEFQGSSSSSHLLGSGNTDGATVKSASSLDRALHAWSQLPHGSMFLKELKKTLTEFVAELAVNAGSNTNDNSNTTHNGTSTEYTTAFLDPSSVFPHLPPLSKVEEAIILLIPFSA”, with “not soluble”; and “MSLGMRDVAKEAGVSLSTVSLVVNKTGYVSDDMRARVEAAMKELNYVPNELARNLYKNRTNLVGVIVPTIRHPFFATLTAHLQRELAAQGLRTMLCSTADAENGEVEYVDMLRRHMMDGIIVCSHTTHPNDYWTSIHRPIVAFDRVLGGGIASIGSDHEQGGRLMAHMLVNTGAHHVVMIGGPRDQFFDLAARNGDSPDDFDLHKTTFPTVRYYLALEQELKAAGVRYEYVEAGNVEDFQGYKNAVNAVLNSMPVDGVDAVVSSDIGAALCVREAMRRHISIPRDLQIIAYDGTYLTDLAGMKMTAVAQNFDKIAQVAVGNIVRAIAKEGDAKADTTSATGRKPYEPDVLIPVTLKLGDTTREGHHHHHH”, with “soluble”; and “MGSDKIHHHHHHMPCMTLLRRAFAIPLLLMVSSGLALAERPAENQKIALQMYTLRSVSTLDEQFSMAHNAGFKAVELVGTHGISASEMKGLLGKYQLKAIAAHVQLGELKSNMAEVVAFNKAIGNRMIIVPWLNVEDRPNSAEGWQRFGTEMNDLGRELKKQGMQLAYHNHNFEMKKYRGKTALEIMLDAAEPENLMLEMDVAWVSLGGQDPARLLRQYKGRIYSIHAKDNTSIGIRDDEMNFAPPGEGILAWEEILPAAAKAGTQWFVAEHDLPKDPQAIISAAYQSLYEKLSKVKSK”, with “not soluble”.
Then “MLDAFAKVVAQADARGEFLTNAQFDALSNLVKEGNKRLDAVNRITSNASTIVANAARALFAEQPQLIQPGGNAYTNRRMAACLRDMEIILRYVTYAILAGDSSVLDDRCLNGLRETYQALGTPGSSVAVAIQKMKDAAIAIANDPNGITPGDCSALMSEIAGYFDRAAAAVA”, with “soluble”.
The entry for “MGIMPRKVLAIKNFKERFDLLPKLKGVIAEKQPDILVVVGNILKNEALEKEYERAHLARREPNRKVIHENEHYIIETLDKFFREIGELGVKTFVVPGKNDAPLKIFLRAAYEAETAYPNIRVLHEGFAGWRGEFEVIGFGGLLTEHEFEEDFVLKYPRWYVEYILKFVNELKPRRLVTIFYTPPIGEFVDRTPEDPKHHGSAVVNTIIKSLNPEVAIVGHVGKGHELVGNTIVVNPGEFEEGRYAFLDLTQHKIKLEQFS” is “soluble”; for “MSLKYKLLVLDLDGTLTNAKKEITLHNREALIRVQQQGVKLILASGRPTFGIVPLADELRMKEFGGFILSYNGGEIIDWSTGEIVYANVLPDEVIPRLYECATRNQLPILTYDRQYIITEYPDDVYVRKEAFLNKMQIYPSTDFLKDIRLPLPKCLIVGEPHRLIPIEAELSVELQGQLSVYRSEPFFLELVPQGIDKAQSLSVLLNKLNMNREEMVAVGDGYNDLSMIQFAGLGVAMGNAQEPVKKAADYITLSNEEDGVAAVVNKFFTKAPEKGEGHHHHHH” it is “soluble”.

The values above are taken from the DeepSol protein solubility set.
